Test results as given in the nanobody polyreactivity screen of Harvey et al. (2022).

Test: yeast display, Sf9 membrane polyspecificity reagent, FACS + sequencing; frameworks hold sequencing errors
How it was run: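 A synthetic nanobody library was expressed on Saccharomyces cerevisiae BJ5465 by galactose induction for 36–48 hours. The library was stained for 1 hour at 4 °C with 10% biotinylated, detergent-solubilized Sf9 membrane reagent and enriched with streptavidin microbeads before FACS. Low and high (top ~1%) gates were set on anti-HA fluorescence for expression and streptavidin fluorescence for reagent binding, and each polyreactivity label reflects the gate of origin.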

| Sequence | polyreactivity (PSR sort gate) |
| --- | --- |
| QVQLVESGGGLVQAGGSLRLSCAASGSIFKLNAMGWYRQAPGKERELVAAISRGGRKYYADSVKGRFTISRDNAKNTVYLQMNSLKPEDTAVYYCAADASSQIWYYPRDDYWGQGTQVTVSS | low polyreactivity |
| QVQLVESGGGLVQAGGSLRLSCAASGSIFKRNAMGWYRQAPGKERELVASITWRGGRTYYADSVKGRFTISRDNAKNTVYLQMNILKPEDTAVYYCATTQYTSHYDAYGYWGQGTQVTVSS | high polyreactivity |
| QVQLVESGGGLVQAGGSLRLSCAASGSIFKRNAMGWYRQAPGKERQLVASISWSGSRTYYADSVKGRFTISRDNAKNTVYLQMISLKPEDTAVYYCARRIYGGHPSQSTQGDFYYWGQGTQVTVSS | high polyreactivity |
| QVQLVESGGGLVQAGGSLRLSCAASGSIFKRNVMGWYRQAPGKERELVAAITWSGASTYYADSVKGRFTISRDNAKITVYLQMNSLKPEDTAVYYCAARGPSRRRDGSDYWGQGTQVTVSS | high polyreactivity |
| QVQLVESGGGLVQAGGSLRLSCAASGSIFKSNAMGWYRQAPGKERELVAGISWGGGSTYYADSVKGRFTISRDNAKNTVYLQMNSLKPEDTAVYYCAAYVYYRPSALAVTGDYYWGQGTQVTVSS | low polyreactivity |
| QVQLVESGGGLVQAGGSLRLSCAASGSIFKSYAMGLYRQAPGKEREFVASITKSGGTTYYADSVKGRFTISRDNAKNTVYLQMNSLKPEDTAVYYCAADWYRSSWTYNYWGQGTQVTVSS | low polyreactivity |
| QVQLVESGGGLVQAGGSLRLSCAASGSIFKSYAMGWYRQAPGKERELVAAISWSGTSTYYADSVKGRFTISRDHAKNTVYLQMNSLKPEDTAVYYCAASGDYGEYGYWGQGTQVTVSS | low polyreactivity |
| QVQLVESGGGLVQAGGSLRLSCAASGSIFKSYAMGWYRQAPGKERELVAAITYRGGSTYYADSVKGRFTISRDNAKNTVYLQMNSLKPEDTAVYYCAKDQHRYYQVWGDYWGQGTQVTVSS | high polyreactivity |
| QVQLVESGGGLVQAGGSLRLSCAASGSIFKSYAMGWYRQAPGKERELVAVISDSGSTYYADSVKGRFTISRDNAKNTVYLQMNSLKPEDTAVYYCRCRGRRNEYWGQGTQVTVSS | high polyreactivity |
| QVQLVESGGGLVQAGGSLRLSCAASGSIFKTNAMGWYRQAPGKERELVAGISNGGSTNYADSVKGRFTISRDNAKNTVYLQMNSLKPEDTAVYYCAKKGYASRYFIYDYWGQGTQVTVSS | low polyreactivity |
| QVQLVESGGGLVQAGGSLRLSCAASGSIFKTYAMGWYRQAPGKERELVAAITSSGGSTYYADSVKGRFTISRDNAKNTVYLQMNSLKPEDTAVYYCNARYWGYWGDHYDYWGQGTQVTVSS | high polyreactivity |
| QVQLVESGGGLVQAGGSLRLSCAASGSIFKVYAMGWYRQAPGKERELVAAISRGGSTYADSVKGRFTISRDNAKNTVYLQMISLKPEDTAVYYCNATVGRIYVTRYDYWGQGTQVTVSS | high polyreactivity |
| QVQLVESGGGLVQAGGSLRLSCAASGSIFKYNAMGWYRQAPGKEREFVAAISRSGGSTYYADSVKGRFTISRDNAKNTVYLQMNSLKPEDTAVYYCATTSRYSWSDYWGQGTQVTVSS | high polyreactivity |
| QVQLVESGGGLVQAGGSLRLSCAASGSIFKYYALGWYRQAPGKERELVAAITSGVSTYADSVKGRFTISRDNAKNTVYLQMNSLKPEDTAVYYCAVRVTGPRGDYWGQGTQVTVSS | low polyreactivity |
| QVQLVESGGGLVQAGGSLRLSCAASGSIFKYYAMGWYRKAPGKERELVAAISYRVGRTYYADSVKGRFTISRDNAKNTVYLQMNSLKPEDTAVYYCNTAYLSGQEYDYWGQGTQVTVSS | high polyreactivity |
| QVQLVESGGGLVQAGGSLRLSCAASGSIFKYYAMGWYRQAPGKEREFVAAITRSGGSTYYADSVKGRFTISRDNAKNTVYLQMNSLKPEDTAVYYCAARSYARPGGSRFDYWGQGTQVTVSS | high polyreactivity |
| QVQLVESGGGLVQAGGSLRLSCAASGSIFKYYAMGWYRQAPGKERELVAAISSGGRTNYADSVKGRFTISRDNAKNTVYLQMNSLKPEDTAVYYCAAGWYRKHRQPSGVGGDYWGQGTQVTVSS | high polyreactivity |
